Laboratory results taken from patent US20040091478A1.

B1: soluble type CD14 purified from human serum (receptor)
chain: TTPEPCELDDEDFRCVCNFSEPQPDWSEAFQCVSAVEVEIHAGGLNLEPFLKRVDADADPRQYADTVKALRVRRLTVGAAQVPAQLLVGALRVLAYSRLKELTLEDLKITGTMPPLPLEATGLALSSLRLRNVSWATGRSWLAELQQWLKPGLKVLSIAQAHSPAFSCEQVRAFPALTSLDLSDNPGLGERGLMAALCPHKFPAIQNLALRNTGIETPTGVCAALAAAGVQPHSLDLSHNSLRATVNPSAPRCMWSSALNSLNLSFAGLEQVPKGLPAKLRVLDLSCNRLNRAPQPDELPEVDNLTLDGNPFLVPGTALPHEGSMNSGVVPACARSTLSVGVSGTLVL
B2: rabbit soluble type CD14 (in New Zealand white rabbit serum) (receptor, UniProt Q28680 18-342, looked up)
chain: STDTPEPCELDDDDIRCVCNFSDPQPDWSSALQCMPAVQVEMWGGGHSLEQFLRQADLYTDQRRYADVVKALRVRRLTVGAVQVPAPLLLGVLRVLGYSRLKELALEDIEVTGTAPPPPPLEATGPALSTLSLRNVSWPKGGAWLSELQQWLKPGLQVLNIAQAHTLAFSCEQVRTFSALTTLDLSENPGLGERGLVAALCPHKFPALQDLALRNAGMKTLQGVCAALAEAGVQPHHLDLSHNSLRADTQRCIWPSALNSLNLSFTGLQQVPKGLPAKLNVLDLSCNKLNRAPQPGELPKVVNLSLDGNPFLVPGASKLQEDLTN
B3: rhesus monkey soluble type CD14 (in serum) (receptor)
chain: TTPEPCELDDEDFRCVCNFSEPHPDWSEAFQCVSAVEVEIRVGGLSLEPFLTRVDPDADPRQYADTIKALRVRRLTVGAAQVPAQLLVGALRVLAYSRLQELTLEDLEITGTMPPLPLEATGLALSSLRLHNVSWATGRSWLAELQQWLKPGLKVLSIAQAHSPAFSCEQVRAFPALTSLDLSDNPGLGERGLIAALCPHKFPALQNLALRNTGMETPTGVCAALAAAGVQPHSLDLSHNSLRATANPSAPRCMWSSALNSLNLSFAGLEQVPKGLPAKLRVLDLSCNRLNRRPRPDELPQVDNLALDGNPFLVPGTALPQEGSMN
B4: crab-eating macaque soluble type CD14 (in serum) (receptor)
chain: B3 chain

target: F1024-1-3 antibody (monoclonal antibody produced by hybridoma F1024-1-3, Accession No. FERM BP-7511); assay: competition ELISA: 4-fold diluted serum mixed with 1 µg/mL peroxidase-labeled F1024-1-3, added to immobilised human CD14(1-356)

| inhibition ratio of binding of F1024-1-3 antibody to human CD14 | Binder |
| --- | --- |
| 83% | B1 |
| 52% | B2 |
| 44% | B3 |
| 57% | B4 |
